Results reported in the Human Domainome abundance scans (Beltran et al. 2025).
± gives the uncertainty stated by the source.

B1: Cell division cycle and apoptosis regulator protein 1, residues 625 to 674; numbered along this chain, Q8IX12 (parent)
chain: ISTPTHWSKLDPKTMKVNDLRKELESRALSSKGLKSQLIARLTKQLKVEE

Variants of: B1
Test: abundance fitness (aPCA) (normalised: wild type 0, dead -1); higher = more abundant; growth selection in yeast, the domain comes from the species named
Conditions: Homo sapiens

Row | Variant | abundance fitness
1 | ISTPTHWSKLDCKTMKVNDLRKELESRALSSKGLKSQLIARLTKQLKVEE | -0.223 ± 0.034
2 | ISTPTHWSKLDPKTMKVNDLRKELESRALSSKGLWSQLIARLTKQLKVEE | -0.482 ± 0.032
3 | ISTPTHWSKLDPKTMKVNDLRKELESRALWSKGLKSQLIARLTKQLKVEE | -0.283 ± 0.043
4 | ISTPTHWSKLDPKTMKVNDLRKELESRALSSKGLKSQLIARLTKQLNVEE | -0.106 ± 0.046
5 | ISTPTHWSKLDPKTMKVNDLRKELESRALSSKGLKSQLIARLTKQLFVEE | -0.489 ± 0.095
6 | ISTPTHWSKLDPKTMKVNDLRKELESRALSSKGPKSQLIARLTKQLKVEE | -0.011 ± 0.055
7 | ISTPTHWSKLDPKTMKKNDLRKELESRALSSKGLKSQLIARLTKQLKVEE | 0.022 ± 0.065
8 | ISTPTHWSKLDPKTMKVNDLRKELESRALSSKGLKVQLIARLTKQLKVEE | -0.105 ± 0.043
9 | ISTPTHWSKLDPKTMKVNDLRKELESIALSSKGLKSQLIARLTKQLKVEE | -1.1 ± 0.14
10 | ISTPTHWSKLDPKTMKVNDLRKELESRSLSSKGLKSQLIARLTKQLKVEE | 0.138 ± 0.031
11 | FSTPTHWSKLDPKTMKVNDLRKELESRALSSKGLKSQLIARLTKQLKVEE | 0.207 ± 0.13
12 | ESTPTHWSKLDPKTMKVNDLRKELESRALSSKGLKSQLIARLTKQLKVEE | -0.314 ± 0.11
13 | ISTPTHWSKLDPKTMHVNDLRKELESRALSSKGLKSQLIARLTKQLKVEE | 0.061 ± 0.076
14 | ISTPTHWSKLDPKTMWVNDLRKELESRALSSKGLKSQLIARLTKQLKVEE | -0.354 ± 0.041
15 | ISGPTHWSKLDPKTMKVNDLRKELESRALSSKGLKSQLIARLTKQLKVEE | -0.096 ± 0.031
16 | ISTPTHWSKLDPKTMKVNDLRKELESRALSSKWLKSQLIARLTKQLKVEE | -1.07 ± 0.073
17 | ISTPTHWSKLDPKTMKVNDLRKELESRALSSKTLKSQLIARLTKQLKVEE | -1.03 ± 0.055
18 | ISTPTHWSKLDPKTMKVNDLRKELEDRALSSKGLKSQLIARLTKQLKVEE | 0.031 ± 0.062
19 | INTPTHWSKLDPKTMKVNDLRKELESRALSSKGLKSQLIARLTKQLKVEE | 0.23 ± 0.041
20 | ISTPTHWSKLDPKTMKVNDVRKELESRALSSKGLKSQLIARLTKQLKVEE | -0.284 ± 0.039
21 | ISTPTHWSKLDPKTMKVNDLRKELESRALSSKGLKSQLIARLTKQLKVGE | -0.919 ± 0.044
22 | ISTPTHWSKLDPKTMKVNDLRKELESRALSSKGLKSQLIARLTKQLKVME | -0.937 ± 0.056
23 | ISTPTHWSALDPKTMKVNDLRKELESRALSSKGLKSQLIARLTKQLKVEE | -0.016 ± 0.036
24 | ISTPTHWSELDPKTMKVNDLRKELESRALSSKGLKSQLIARLTKQLKVEE | -0.068 ± 0.07
25 | ISTPTHWSKLDPRTMKVNDLRKELESRALSSKGLKSQLIARLTKQLKVEE | -0.221 ± 0.032
26 | ISTPTHWSKLDPMTMKVNDLRKELESRALSSKGLKSQLIARLTKQLKVEE | 0.002 ± 0.036

Row | Variant | abundance fitness
27 | ISTPHHWSKLDPKTMKVNDLRKELESRALSSKGLKSQLIARLTKQLKVEE | -0.234 ± 0.039
28 | ISTPTHWSKLDPKTMKVNDLRKELESRALSSKGLKSQLIARLTKQKKVEE | -0.347 ± 0.056
29 | ISTETHWSKLDPKTMKVNDLRKELESRALSSKGLKSQLIARLTKQLKVEE | -0.052 ± 0.04
30 | ISTPTHWSKLDPKTMKVNDLLKELESRALSSKGLKSQLIARLTKQLKVEE | -0.215 ± 0.039
31 | ISTPTMWSKLDPKTMKVNDLRKELESRALSSKGLKSQLIARLTKQLKVEE | -0.036 ± 0.046
32 | ISTPTHRSKLDPKTMKVNDLRKELESRALSSKGLKSQLIARLTKQLKVEE | -0.178 ± 0.036
33 | ISTPTHWSKLDPKTMKVNDLRKELESRALSSKGLKSQLIARLKKQLKVEE | 0.148 ± 0.055
34 | ISTPTHWSKLDPKTMKVNDLRKELESRALSSKGLKSQLIARLMKQLKVEE | -0.094 ± 0.039
35 | ISTPTHWSKLDPKTMKVNDLRKELESRALSSKGLKSQLIARLTLQLKVEE | -0.289 ± 0.035
36 | ISTPTHWSKLDPKTMKVNDLRKELESRALSSKGLKSQLIARLTWQLKVEE | -0.338 ± 0.057
37 | ISTPTHWSKLDPKNMKVNDLRKELESRALSSKGLKSQLIARLTKQLKVEE | 0.038 ± 0.065
38 | ISTPTHWSKLDPKTMKVNDLRKELESRALSSKGLKSQLIARLTKQLKVEW | -0.173 ± 0.12
39 | ISTPTHWSKLDPKTMKVNDLRKELESRALSSKGLKSQLIARLTKQLKVEH | 0.003 ± 0.16
40 | ISTPTHWSKLDPKTMKVNGLRKELESRALSSKGLKSQLIARLTKQLKVEE | -0.196 ± 0.035
41 | ISTPTHWSKLDPKTMKVNKLRKELESRALSSKGLKSQLIARLTKQLKVEE | -0.33 ± 0.035
42 | ISTPTHWSKLDPKTMKVNDLRKELESRALSSKGLKSQLIARNTKQLKVEE | -0.515 ± 0.049
43 | ISTPTHWSKLDPKTMKVNDLRKELESRALSSKGLKSQLIARDTKQLKVEE | -0.493 ± 0.043
44 | ISTPTHWSKLDPKTMKVNDLRKELESRALSSKGLKSQLIARKTKQLKVEE | -0.677 ± 0.055
45 | ISTPTHWSKLDPKTMKVNDLRKELESRALSSKGLKSQTIARLTKQLKVEE | -0.63 ± 0.047
46 | ISTPTHWSKLDPKTMKVNDLRIELESRALSSKGLKSQLIARLTKQLKVEE | -0.065 ± 0.047
47 | ISTPTHWSKLDPKTMKVNDLREELESRALSSKGLKSQLIARLTKQLKVEE | -0.242 ± 0.059
48 | ISTPTHWSKLDPKTMKVNDLRRELESRALSSKGLKSQLIARLTKQLKVEE | -0.023 ± 0.03
49 | ISTPTHWSKLDPKTMKVNDLRDELESRALSSKGLKSQLIARLTKQLKVEE | -0.239 ± 0.075
50 | ISTPTHWSKLDPKTMKVNDLRKELESRALSSKGLKSTLIARLTKQLKVEE | -0.093 ± 0.032
51 | ISTPTHWSKLDPKTMKVNDLRKELESRALSSKGLKSQLIARLTKQLKTEE | -0.073 ± 0.055
52 | ISTPTHWSKLDPKTMKVNDLRKELESRALSSKGLKSQLIARLTKQLKNEE | 0.031 ± 0.046
